Experimental data published in the supplement of paper PMC12042874.
± gives the uncertainty stated by the source.

Assay: amyloid nucleation score (Sup35N fusion, yeast selection) (log enrichment); library NNK3; higher = more nucleation; inactive = no reads after selection
How it was run: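 On medium lacking adenine and uracil, psi-negative yeast expressing peptides of 20 random codons fused to Sup35N were grown 7 days at 30°C after a 24-hour induction with 100 μM copper sulfate. Illumina sequencing of input and output plasmid inserts gave the reads, and sequences under 100 input reads were excluded. The nucleation score is the DiMSum log enrichment of output over input reads, centred on the mode score of non-aggregating sequences.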

Row | Substance | amyloid nucleation score
1 | GSGLPLTALRSTYVAAPHSE | inactive
2 | YNSRDDSIKFFFVRSCILTY | inactive
3 | NFGLFREVGLFIRLWIANAA | inactive
4 | IFKKLSFL | inactive
5 | VCRWSGGGEIGIICGLVSLV | inactive
6 | AVLGLMLPCFRARRAWIAPP | -0.22 ± 1.5
7 | RFSRRYMHGFS | inactive
8 | DVLHLRCREVRRDVGYVTEF | inactive
9 | DFYEIRTSGCDLYMFRGVVA | inactive
10 | WVFVRMMVELINMTAAFAVS | inactive
11 | LYIIFERD | inactive
12 | NSRFIMHHVGRAFDCDAYLF | -0.194 ± 0.8
13 | GGLDFSSLSLMWYTQSSHKV | inactive
14 | VRITSMPTFWRIEPGYLERV | inactive
15 | FRNRCVNDD | inactive
16 | FYNFSTCVTRGWYVFMRC | inactive
17 | SDIAVLRRLNCMKVKLKLWH | inactive
18 | NDRVIRVGVN | inactive
19 | STHGWGGWLSVYIGNP | inactive
20 | WNGKGLSSGTLSISRKT | inactive
21 | IITTHSFQTDWHISEYQDIC | inactive
22 | TPYGRIFWADDIFNSVAICL | inactive
23 | FLNTSPYCGTL | inactive
24 | LDFRLFGFPDKNEHYGGEYK | inactive

Row | Substance | amyloid nucleation score
25 | LNPLMFKMRFLMEYNLAWGV | 0.891 ± 0.28
26 | IMPYC | inactive
27 | SSDFTSWDVREILGRAVVLC | inactive
28 | VDWWSALEDYYSLELLMEVK | inactive
29 | IAYIT | inactive
30 | WYRYSGGYNWP | 0.396 ± 0.29
31 | PQHADVAFVT | inactive
32 | VSANSMFIRGLIDSILAELA | inactive
33 | FWVNVCVFMGRVW | inactive
34 | RIHDNVPSIVWFWEPPHPRH | inactive
35 | RTFPNTWHAMIFGCVNKPNC | inactive
36 | PMMWSVVVYNTNIYGLVCAM | 1.26 ± 0.08
37 | WSIRMW | inactive
38 | SMRQSFQWCYHSAECYVHSG | 0.337 ± 0.31
39 | CYWVRDSRLGW | inactive
40 | YLCLWCVEQLMYCRPRRLEE | inactive
41 | GSRCCNSAFNKECLSITEHS | -0.485 ± 0.8
42 | LYLVMSYV | inactive
43 | AIYLSFRGNA | 1.65 ± 0.071
44 | RHSILVSYFHWWFRDWKPFW | inactive
45 | SFISVCNAVLHIR | inactive
46 | FNFVLALI | 1.69 ± 0.084
47 | VVASDNSTMVENWSFNGKMS | inactive
48 | SGLWHRILCSGRPTGYTQWV | inactive

Row | Substance | amyloid nucleation score
49 | SRNILRLKLIRLCSRKGIWW | inactive
50 | FLFYLFFFSGRMDR | 0.179 ± 0.33
51 | HRKMHDT | inactive
52 | WGWPSFTCTWLCRRSSCRWP | inactive
53 | RVEVSSTGV | inactive
54 | ERRNRMFSWCWCSSSLLDAE | -0.08 ± 1
55 | MRTINIS | inactive
56 | RIRCVMFGGRKSRRKLDSVV | inactive
57 | SNYGTYRRNSPHSCLRTFWR | inactive
58 | IVRPLLNFLCDLCRKVALGK | inactive
59 | RPVKCSLYMTGQLQRLDGVN | 0.915 ± 0.14
60 | GQKCHLGCAFGCDEYTWAKG | inactive
61 | MNVFVAQSLRRVHCAHELN | 0.233 ± 0.81
62 | SYNFVNQYVWKEDRNTKVAI | inactive
63 | FDVDGLILFICWCMQRAHM | inactive
64 | DAVGCNILACDSGGRDWTGG | -0.744 ± 1.2
65 | YNRLNRL | inactive
66 | SSSVTVYRFKGSTSSLGTNY | inactive
67 | TIFEAA | inactive
68 | YRVSEELTLLY | inactive
69 | VLGPLQLRRIAHETGRCNAM | inactive
70 | NVWSVVFVSCLIIYGCPKWM | 1.31 ± 0.087
71 | TFLYTFWVLMACSELV | inactive
72 | RAFMVSVSHCRMCWIWC | inactive

Row | Substance | amyloid nucleation score
73 | IKEFLCLDLCQGGGLLSLMV | inactive
74 | PYSISMISTRYCLGRQHD | inactive
75 | FSCIPCG | inactive
76 | VSRFVLLWMSNCWATYGLFR | inactive
77 | TGQLSSQPIIQISREPIAFT | inactive
78 | SKSYVEF | inactive
79 | GVTQVIWVAYNILFLNNCWM | inactive
80 | PVKGSFDT | inactive
81 | EHLQRGSHLFSFSRSEI | inactive
82 | ECVFIKFWVEGWKTLWSWSA | inactive
83 | VDNSERLSLHPSVHMGDMGF | inactive
84 | EENTVSSTAIKNVVYSQFQV | inactive
85 | FDFARWKDMKRESFLFLDVR | inactive
86 | YAATRW | inactive
87 | LKRNVNYVNLNVFRLFLK | inactive
88 | FSIVMTRFSFGSRVGSFYNF | 0.151 ± 0.44
89 | VKTSQRSVTL | inactive
90 | IVTVLNSVLGKGFQQAPRRG | inactive
91 | FVCYNTFSSSACSLCNHLSH | 2.4 ± 0.053
92 | KDWQTIYQLRSVTFFDLLVV | inactive
93 | KSWVIKLSGFVETWHRMD | inactive
94 | TSDQSESISLFRYI | inactive
95 | YIEILE | inactive
96 | TWQFSGYWCSLYMSA | 1.67 ± 0.12

Row | Substance | amyloid nucleation score
97 | FNVLSDPACVRPGLVVRVSE | inactive
98 | RFSVNGNR | inactive
99 | CSNRFSNHFMYYVSMLGDGL | inactive
100 | CQPNWGWCSARIVLHILVLR | inactive
101 | LCVYTYTSTHAVFFIVFDSR | inactive
102 | SHYSSWVSRDRWSNTEFGMV | inactive
103 | LDMQEPPVNAVRHYLSL | inactive
104 | RSGSMWCLSMLVVHLDELTD | inactive
105 | VIVASVVLKW | inactive
106 | LDRSVMIRFGLELMRWSSGG | 0.356 ± 0.35
107 | TSTYSFCTRVWYPASIIFGR | inactive
108 | QNVFWIVSGTSEWGSALVFG | inactive
109 | SVNLFVLMYLFII | 1.9 ± 0.061
110 | WCLSCVLTNIRVRIPNRTVV | inactive
111 | NRLNGSLILDRHLL | inactive
112 | FVPRPISNSAGIP | inactive
113 | LIRMFISVMSYCMTVGLGMG | inactive
114 | LVFIWAKTHRHQLFVTEAEL | inactive
115 | FLFIGSFCGCSVSRPDRYYS | 2.57 ± 0.08
116 | WNNRWVCNLSTSSGMNLLDR | inactive
117 | IGMVHCIAEDARRLLLYIWV | inactive
